The target of assay [1] is T1, B7-H3 on B7-H3-expressing cancer cells (UniProt Q5ZPR3 29-534, limits assumed).
T1 construct: whole, on cells; Endogenous expression on tumour cell lines; also called B7-H3 expressing cells; CD276
T1 sequence (looked up): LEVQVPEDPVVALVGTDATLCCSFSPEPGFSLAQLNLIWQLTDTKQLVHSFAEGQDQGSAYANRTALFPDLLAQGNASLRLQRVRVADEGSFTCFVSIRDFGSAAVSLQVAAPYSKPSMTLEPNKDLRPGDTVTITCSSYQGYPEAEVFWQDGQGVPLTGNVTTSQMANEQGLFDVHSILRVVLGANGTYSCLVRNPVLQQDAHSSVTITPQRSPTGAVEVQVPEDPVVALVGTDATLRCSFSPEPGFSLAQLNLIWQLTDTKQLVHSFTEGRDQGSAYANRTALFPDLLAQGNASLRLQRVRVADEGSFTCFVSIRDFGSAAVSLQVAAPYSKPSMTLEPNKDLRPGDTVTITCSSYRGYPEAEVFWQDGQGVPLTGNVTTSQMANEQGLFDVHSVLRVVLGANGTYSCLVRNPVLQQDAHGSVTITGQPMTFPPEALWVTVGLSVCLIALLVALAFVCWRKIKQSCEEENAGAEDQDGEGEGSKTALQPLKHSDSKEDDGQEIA
Description: FACS on U87 (glioma) cells. The protocol: (§1) Screening for B7-H3-expressing cells were performed using FACS with 27B4H4L3 antibody and MFI of 27B4H4L3 to those cells shown in Table 2. FACS assay was also used to exam and compare the binding capabilities of the 27B4H4L3 antibody, BH73 antibody, 27B4H4L3-MMAE and BH73-Eribulin to B7-H3-expressing cells. To perform the assay, target cells and samples were incubated at 4° C. for 1 h. After wash, samples and secondary antibody (goat pAb to human IgG (FITC) (Abcam, ab97224)) were incubated. FACS was performed on […] (BD, Accuri C6 Plus) and mean fluorescence intensity (MFI) was reported. Three cell lines (U87MG, BT-474 and HT-29) representing B7-H3 high- and low-expressing cells were used to compare binding capacities of different antibody constructs and ADCs.

Assay [2] concerns the target T1, B7-H3 on B7-H3-expressing cancer cells. Description: FACS on HT-29 (colon) cells. The protocol:
as §1

Assay [3] has the same target. Briefly: FACS on BT-474 (breast) cells. The protocol: as §1

B1: 27B4H4L3 antibody (antibody, human IgG1, kappa)
heavy: EVQLVQSGAEVKKPGESLKISCKASGYTFTTYWIGWVRQMPGKGLEWMGIIYPGDGGSRYSPSFQGQVTISADKSISTAYLQWSSLKASDTAMYYCARGGNYISFPMYYWGQGTLVTVSSASTKGPSVFPLAPSSKSTSGGTAALGCLVKDYFPEPVTVSWNSGALTSGVHTFPAVLQSSGLYSLSSVVTVPSSSLGTQTYICNVNHKPSNTKVDKRVEPKSCDKTHTCPPCPAPELVGGPSVFLLPPKPKDTLMISRTPEVTCVVVDVSHEDPEVKFNWYVDGVEVHNAKTKPPEEQYNSTLRVVSVLTVLHQDWLNGKEYKCKVSNKALPAPIEKTISKAKGQPREPQVYTLPPSREEMTKNQVSLTCLVKGFYPSDIAVEWESNGQPENNYKTTPLVLDSDGSFFLYSKLTVDKSRWQQGNVFSCSVMHEALHNHYTQKSLSLSPGK
light: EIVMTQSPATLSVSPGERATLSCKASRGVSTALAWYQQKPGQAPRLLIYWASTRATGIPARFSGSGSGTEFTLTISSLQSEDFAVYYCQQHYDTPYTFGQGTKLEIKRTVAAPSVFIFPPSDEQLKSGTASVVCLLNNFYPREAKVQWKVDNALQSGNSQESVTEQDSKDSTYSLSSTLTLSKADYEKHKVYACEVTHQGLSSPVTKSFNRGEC
notes: also called 27B4H43L3
As to B1, the MFI in assay [1] is 314000 MFI; in assay [2] it was 69500 MFI; in assay [3] it was 126000 MFI.

B2: 27B4H4L3-MMAE (antibody, human IgG1, kappa)
heavy: EVQLVQSGAEVKKPGESLKISCKASGYTFTTYWIGWVRQMPGKGLEWMGIIYPGDGGSRYSPSFQGQVTISADKSISTAYLQWSSLKASDTAMYYCARGGNYISFPMYYWGQGTLVTVSSASTKGPSVFPLAPSSKSTSGGTAALGCLVKDYFPEPVTVSWNSGALTSGVHTFPAVLQSSGLYSLSSVVTVPSSSLGTQTYICNVNHKPSNTKVDKRVEPKSCDKTHTCPPCPAPELVGGPSVFLLPPKPKDTLMISRTPEVTCVVVDVSHEDPEVKFNWYVDGVEVHNAKTKPPEEQYNSTLRVVSVLTVLHQDWLNGKEYKCKVSNKALPAPIEKTISKAKGQPREPQVYTLPPSREEMTKNQVSLTCLVKGFYPSDIAVEWESNGQPENNYKTTPLVLDSDGSFFLYSKLTVDKSRWQQGNVFSCSVMHEALHNHYTQKSLSLSPGK
light: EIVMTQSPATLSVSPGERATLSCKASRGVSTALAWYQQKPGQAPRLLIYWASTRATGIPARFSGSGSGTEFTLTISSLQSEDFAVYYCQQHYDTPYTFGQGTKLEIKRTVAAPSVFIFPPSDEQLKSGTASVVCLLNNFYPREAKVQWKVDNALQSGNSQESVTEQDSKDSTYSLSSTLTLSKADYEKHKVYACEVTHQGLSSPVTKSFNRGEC
modifications: may carry MC-Val-Cit-PAB-MMAE on an inter-chain disulfide cysteine; positions not given; MC-Val-Cit-PAB-MMAE drug-linker on cysteines of partially reduced inter-chain disulfide bonds; main peaks DAR2, DAR4, DAR6, minor DAR0 and DAR8; positions not given
notes: a mixture of DAR species; also called ADC made of 27B4H4L3 antibody
As to B2, the MFI in assay [1] came to 290000 MFI; in assay [2] it was 65300 MFI; in assay [3], 126000 MFI.

The values are drawn from patent US20230414781A1 (BLISS BIOPHARMACEUTICAL HANGZHOU, published 2023).
